Experimental data as given in the supplement of paper PMC9876800.

Tested on: peptide library, one residue held at a place counted from the S/T acceptor
Test: relative phosphorylation of the sub-library (ratio to the mean residue at this position); higher = residue favoured
Details: human
In short: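 Relative sub-library phosphorylation is the ratio of each sub-library's signal to the mean residue at that position. The signal came from phosphorimaging of spots on streptavidin membranes, quantified by densitometry, after purified recombinant kinases reacted with biotinylated degenerate peptide sub-libraries in 384-well plates. Reactions held 50 μM peptide and 50 μM ATP spiked with γ-32P-ATP for 90 min under kinase-specific conditions.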

Chain of LATS1, construct: aa589-end (O95835 589-1130, looked up): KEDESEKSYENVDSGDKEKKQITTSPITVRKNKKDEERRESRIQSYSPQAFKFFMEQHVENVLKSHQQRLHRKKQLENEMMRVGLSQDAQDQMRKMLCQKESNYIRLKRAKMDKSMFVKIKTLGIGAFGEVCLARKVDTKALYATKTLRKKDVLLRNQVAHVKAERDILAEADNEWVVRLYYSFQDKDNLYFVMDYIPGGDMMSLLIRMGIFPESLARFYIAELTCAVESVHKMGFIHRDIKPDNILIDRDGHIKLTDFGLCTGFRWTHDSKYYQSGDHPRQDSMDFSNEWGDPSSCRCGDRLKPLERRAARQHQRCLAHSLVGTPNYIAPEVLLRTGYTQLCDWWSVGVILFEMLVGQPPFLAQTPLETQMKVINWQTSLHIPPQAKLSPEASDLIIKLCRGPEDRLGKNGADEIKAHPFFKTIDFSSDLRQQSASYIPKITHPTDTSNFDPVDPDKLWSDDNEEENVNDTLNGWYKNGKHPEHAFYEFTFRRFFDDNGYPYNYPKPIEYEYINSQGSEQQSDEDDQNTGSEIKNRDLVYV

LATS1, construct: aa589-end (from UniProt O95835)
relative phosphorylation
Details | at +1 | at +2 | at +3 | at +4 | at -1 | at -2 | at -3 | at -4 | at -5
A fixed | 0.659 | 0.785 | 0.976 | 0.856 | 0.615 | 0.872 | 0.639 | 1.08 | 0.8
D fixed | 1.01 | 1.11 | 1.46 | 1.45 | 1.88 | 1.91 | 1.24 | 0.946 | 1.01
E fixed | 1.3 | 2.1 | 1.28 | 1.52 | 0.865 | 1.3 | 0.564 | 0.822 | 0.706
F fixed | 0.776 | 0.66 | 0.867 | 0.785 | 0.27 | 0.756 | 0.375 | 0.839 | 0.611
G fixed | 0.751 | 0.85 | 1.17 | 1.34 | 1.3 | 0.893 | 0.853 | 1.04 | 1.09
H fixed | 0.946 | 1.2 | 1.03 | 1.22 | 0.891 | 0.974 | 1.2 | 1.6 | 4.19
I fixed | 0.957 | 1.34 | 0.784 | 0.743 | 0.21 | 0.298 | 0.257 | 0.481 | 0.476
K fixed | 1.23 | 0.623 | 1.27 | 0.844 | 2.38 | 1.36 | 1.78 | 1.15 | 0.971
L fixed | 1.46 | 1.29 | 0.961 | 0.707 | 0.438 | 0.373 | 0.312 | 0.62 | 0.52
M fixed | 1.8 | 0.941 | 0.791 | 0.994 | 0.667 | 0.692 | 0.427 | 0.8 | 0.74
N fixed | 0.907 | 1.12 | 0.955 | 1.26 | 1.2 | 1.08 | 0.765 | 0.939 | 0.868
P fixed | 0.648 | 0.816 | 1.08 | 0.982 | 3.01 | 0.99 | 2.34 | 1.42 | 0.834
Q fixed | 0.91 | 0.846 | 0.941 | 0.924 | 1.02 | 1.41 | 0.705 | 1.02 | 0.718
R fixed | 0.683 | 1.21 | 0.645 | 0.755 | 0.915 | 1.79 | 3.7 | 1.19 | 1.15
V fixed | 0.797 | 0.771 | 0.902 | 0.647 | 0.294 | 0.359 | 0.326 | 0.61 | 0.613
W fixed | 1.26 | 0.585 | 1.06 | 0.907 | 0.436 | 0.969 | 0.708 | 1.5 | 0.842
Y fixed | 0.9 | 0.754 | 0.827 | 1.07 | 0.604 | 0.978 | 0.824 | 0.931 | 0.863
pThr fixed | 1.2 | 1.09 | 1.2 | 2.38 | 0.769 | 0.586 | 0.536 | 0.599 | 0.598
pTyr fixed | 0.854 | 0.716 | 0.789 | 1.15 | 0.411 | 0.431 | 0.542 | 0.578 | 0.613

MAP3K5, construct: aa659-951 (from UniProt Q99683)
relative phosphorylation
Details | at +1 | at +2 | at +3 | at +4 | at -1 | at -2 | at -3 | at -4 | at -5
A fixed | 0.385 | 0.72 | 0.897 | 0.901 | 0.825 | 1.66 | 1.44 | 1.09 | 1.01
D fixed | 0.255 | 0.881 | 0.707 | 0.815 | 0.699 | 0.504 | 0.689 | 0.908 | 0.899
E fixed | 0.344 | 0.473 | 0.652 | 0.812 | 0.685 | 0.471 | 0.738 | 0.906 | 0.815
F fixed | 2 | 1.32 | 1.22 | 0.964 | 1.08 | 0.77 | 0.826 | 1.04 | 1.17
G fixed | 0.324 | 0.521 | 0.951 | 0.926 | 1.58 | 1.12 | 0.979 | 1.08 | 1.28
H fixed | 1.1 | 1.06 | 1.04 | 1.12 | 1.06 | 0.985 | 1.24 | 1.02 | 1.19
I fixed | 2.04 | 0.648 | 1.01 | 0.717 | 0.507 | 1.12 | 0.905 | 0.897 | 0.75
K fixed | 0.375 | 1.08 | 1.04 | 1.88 | 1.13 | 0.61 | 1.02 | 0.913 | 1.13
L fixed | 1.33 | 0.806 | 1.03 | 0.943 | 0.993 | 1.12 | 1.01 | 0.827 | 0.747
M fixed | 0.894 | 0.812 | 1.06 | 0.877 | 1.06 | 1.17 | 0.894 | 1.04 | 0.88
N fixed | 0.382 | 0.615 | 0.793 | 0.743 | 1.04 | 1.36 | 0.989 | 0.807 | 0.792
P fixed | 0.352 | 0.543 | 1.03 | 1.02 | 1.07 | 1.22 | 1.36 | 1.22 | 1.41
Q fixed | 0.498 | 0.64 | 0.806 | 0.89 | 0.775 | 0.987 | 1 | 1.01 | 0.919
R fixed | 0.401 | 1.34 | 1.31 | 1.5 | 1.6 | 0.941 | 1.04 | 0.965 | 1.08
V fixed | 1.78 | 0.645 | 1.01 | 0.723 | 0.54 | 1.09 | 0.835 | 1.12 | 0.836
W fixed | 1.97 | 1.32 | 1.14 | 1.33 | 0.981 | 0.777 | 1.12 | 1.08 | 0.996
Y fixed | 2.56 | 3.57 | 1.29 | 0.846 | 1.37 | 1.09 | 0.904 | 1.07 | 1.09
pThr fixed | 0.556 | 0.528 | 0.673 | 0.597 | 0.672 | 0.847 | 0.914 | 0.985 | 1
pTyr fixed | 0.623 | 0.518 | 0.863 | 0.704 | 1.47 | 0.793 | 0.884 | 1.04 | 1.24

MAP3K9, construct: aa132-413 (from UniProt P80192)
relative phosphorylation
Details | at +1 | at +2 | at +3 | at +4 | at -1 | at -2 | at -3 | at -4 | at -5
A fixed | 0.832 | 0.66 | 0.89 | 0.949 | 0.791 | 0.914 | 1.07 | 1.13 | 1.12
D fixed | 0.308 | 0.362 | 0.612 | 0.652 | 1.02 | 1.23 | 1.16 | 1.57 | 1.45
E fixed | 0.492 | 0.46 | 0.619 | 0.719 | 0.854 | 1.03 | 1.38 | 1.45 | 1.3
F fixed | 1.61 | 0.594 | 1.44 | 0.823 | 1.19 | 1.33 | 1.14 | 0.824 | 0.978
G fixed | 0.686 | 0.727 | 0.991 | 1.02 | 0.525 | 0.932 | 1.21 | 1.18 | 1.13
H fixed | 1.23 | 1.66 | 1.28 | 0.995 | 1.3 | 1.13 | 1.1 | 0.955 | 0.984
I fixed | 1.3 | 0.627 | 0.865 | 0.842 | 0.899 | 0.715 | 0.785 | 0.734 | 0.887
K fixed | 1.19 | 2.81 | 1.59 | 1.94 | 1.07 | 0.523 | 0.688 | 0.998 | 0.882
L fixed | 0.969 | 0.598 | 1.11 | 0.841 | 1.08 | 0.824 | 0.792 | 0.759 | 0.737
M fixed | 1.28 | 0.522 | 0.995 | 0.952 | 1.25 | 0.931 | 0.863 | 0.929 | 0.827
N fixed | 0.689 | 0.836 | 0.797 | 0.946 | 1.1 | 1.07 | 1.04 | 0.951 | 1.08
P fixed | 0.208 | 0.36 | 0.501 | 1.04 | 0.775 | 1.57 | 1.15 | 0.99 | 0.9
Q fixed | 1.2 | 0.907 | 0.741 | 0.943 | 0.924 | 1.08 | 0.925 | 0.934 | 0.901
R fixed | 1.55 | 3.45 | 1.47 | 1.8 | 1.26 | 0.817 | 0.946 | 1.14 | 1.05
V fixed | 1.49 | 0.602 | 0.796 | 0.767 | 0.873 | 0.701 | 0.798 | 0.83 | 0.908
W fixed | 1.19 | 0.687 | 1.19 | 1.05 | 0.969 | 1.13 | 0.881 | 0.892 | 0.907
Y fixed | 0.772 | 1.13 | 1.12 | 0.72 | 1.13 | 1.07 | 1.08 | 0.745 | 0.958
pThr fixed | 0.825 | 0.703 | 0.677 | 1.01 | 0.976 | 1.23 | 1.83 | 1.55 | 1.57
pTyr fixed | 0.628 | 0.376 | 0.709 | 0.622 | 1.29 | 1.19 | 1.54 | 1.02 | 1.54

MAP3K20, construct: Full length (from UniProt Q9NYL2)
relative phosphorylation
Details | at +1 | at +2 | at +3 | at +4 | at -1 | at -2 | at -3 | at -4 | at -5
A fixed | 0.455 | 0.721 | 0.832 | 0.953 | 0.78 | 0.903 | 1.01 | 0.913 | 1.12
D fixed | 0.247 | 0.439 | 0.477 | 0.582 | 1.46 | 1.01 | 0.926 | 1.29 | 1
E fixed | 0.359 | 0.359 | 0.543 | 0.629 | 0.797 | 0.946 | 1.13 | 1.14 | 0.884
F fixed | 1.58 | 0.694 | 1.11 | 0.722 | 0.853 | 1.03 | 0.835 | 0.894 | 0.925
G fixed | 0.282 | 0.564 | 0.99 | 1.06 | 1.22 | 1.45 | 1.18 | 1.16 | 1.09
H fixed | 1.07 | 2.45 | 1.13 | 1.14 | 1.79 | 1.61 | 1.2 | 1.13 | 1.1
I fixed | 2.51 | 0.692 | 1.08 | 0.729 | 0.394 | 0.631 | 0.772 | 0.72 | 0.733
K fixed | 0.486 | 1.57 | 1.45 | 2.05 | 1.01 | 0.509 | 0.819 | 1.08 | 1.39
L fixed | 1.3 | 0.646 | 1.07 | 0.672 | 0.679 | 0.858 | 0.952 | 0.736 | 0.812
M fixed | 0.981 | 0.758 | 0.972 | 0.818 | 1.13 | 0.812 | 0.915 | 0.849 | 0.822
N fixed | 0.473 | 0.996 | 0.822 | 0.946 | 1.63 | 1.12 | 1.28 | 1.19 | 1.11
P fixed | 0.261 | 0.41 | 0.771 | 1.16 | 0.632 | 0.693 | 1.23 | 1.07 | 1.03
Q fixed | 0.629 | 0.894 | 0.896 | 1.04 | 1.08 | 0.977 | 0.892 | 0.932 | 0.914
R fixed | 0.557 | 2.15 | 1.42 | 1.72 | 1.12 | 0.662 | 1.01 | 1.11 | 1.14
V fixed | 2.5 | 0.779 | 0.984 | 0.69 | 0.461 | 0.647 | 0.841 | 0.76 | 0.772
W fixed | 1.27 | 1.08 | 1.25 | 1.19 | 0.778 | 2.07 | 1.11 | 1.07 | 1.14
Y fixed | 2.03 | 1.8 | 1.21 | 0.895 | 1.18 | 1.07 | 0.909 | 0.959 | 1.01
pThr fixed | 0.837 | 0.564 | 0.781 | 0.663 | 0.615 | 1.09 | 1.34 | 1.2 | 1.22
pTyr fixed | 0.662 | 0.528 | 0.72 | 0.694 | 0.997 | 0.935 | 1.06 | 0.797 | 1.04
